Experimental data: publication PMC3554717

Molecular target: endogenous CSK (Jurkat) (UniProt P41240)
Test: GST pull-down, CSK immunoblot densitometry
Settings: Jurkat cell lysates (3×10^8 cells divided into five tubes); GST alone lane 0.00; parent: 84.98

endogenous CSK (Jurkat), sequence (P41240 whole entry): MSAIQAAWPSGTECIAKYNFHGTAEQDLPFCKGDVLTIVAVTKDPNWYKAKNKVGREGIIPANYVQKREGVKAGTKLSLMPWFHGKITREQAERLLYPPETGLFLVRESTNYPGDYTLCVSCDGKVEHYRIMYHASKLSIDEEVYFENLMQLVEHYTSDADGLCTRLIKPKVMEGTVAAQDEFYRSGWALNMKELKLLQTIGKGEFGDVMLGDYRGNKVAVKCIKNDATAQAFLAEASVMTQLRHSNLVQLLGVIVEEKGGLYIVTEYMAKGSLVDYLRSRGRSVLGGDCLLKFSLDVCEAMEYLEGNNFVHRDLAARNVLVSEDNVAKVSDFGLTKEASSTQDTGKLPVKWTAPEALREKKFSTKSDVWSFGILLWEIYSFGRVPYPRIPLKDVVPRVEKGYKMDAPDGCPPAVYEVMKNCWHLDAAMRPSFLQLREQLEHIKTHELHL

LYP P1 motif (Arg620) fused to GST R620W
response (arbitrary units): -0
